# B1: 1035211 (antibody, V domains shown)
# VH: QVQLQQSGAELARPGASVKMSCKASGYTFTNYTMHWVKQRPGQGLEWIGYINPSSGYTNYNQKFKDKATLTADKSSSTAYMQLSSLTSEDSAVYYCARRNPLYAMDYWGQGTSVTVSS
# VL: DIKMTQSPSSMYASLGERVTITCKASQDINSYLNWFQQKPGKSPKTLIYRANRLVDGVPSRFSGSGSGQDYSLTISSLEFEDMGIYYCLQYDEFPYTFGGGTKLEIK
# B2: 1035423 (antibody, V domains shown)
# VH: EVKLEESGGGLVQPGGSMKLSCTASGFTFSDAWMDWVRQSPEKGLEWVAEIRNKANNHATYYAESVKGRFTISRDDSKSSVYLQMNSLRAEDTGIYYCILFITYAMDYWGQGTSVTVSS
# VL: DIVLTQSQKFMSTSVGDRVSITCKASQNVRTAVAWYQQKPGQSPKALIYLASNRHTGVPDRFTGSGSGTDFTLTISNVQSEDLADYFCLQHWNYPLTFGSGTKLELK
# B3: 1035716 (antibody, V domains shown)
# VH: EVLLQQSGPELVKPGASVKIPCKASGYTFTDYNMDWVKQSHGKSLEWIGDINPNNGGTIYNQKFKGKATLTVDKSSSTAYMELRSLTSEDTAVYYCAREGYGNYFDYWGQGTTLTVSS
# VL: DILLTQSPAILSVSPGERVSFSCRASQSIGTSIHWYQQRTNGSPRLLIKYASESISGIPSRFSGSGSGTDYTLSINSVESEDIADYYCQQSYSWPTTFGAGTKLELK
# B4: 1035752 (antibody, V domains shown)
# VH: QVQLQQPGAELVRPGASVKMSCKASGYTFTSHSIHWVKQTPGQGLEWIGAVYPGNGDTSYYQKFKGKATLTADKSSSTAYMHLSSLTSEDSAVYYCARDGYSDYYAMDCWGQGTSVTVSS
# VL: DIVMTQSQKFMSTSVGDRVSVTCKASQNVGTNVAWYQQKPGQSPKALIYSASYRYSGVPDRFTGSGSGTDFTLTINNVQSEDLAEYFCQQYNRYPWTFGGGTKLEIK
# B5: 1035414 (antibody, V domains shown)
# VH: QVQLKQSGAELVRPGASVKLSCKTSGYIFTSYWIHWVKQRSGQGLEWIARIYPGTGNTYYNEKFKGKATLTADKSSTTAYMQLSSLKSEDSAVYFCARGEDNLYYYAMDYWGQGTSVTVSS
# VL: NIVLTQSPASLAVSLGQRATISCRASESVDSYGTSFMHWYQQKPGQPPKLLIYLASNLESGVPASFSGSGSRTDFTLTIDPVEADDAATYYCQQNNEDPWTFGGGTKLEIK
# B6: 1035433 (antibody, V domains shown)
# VH: QVQLQQSGPQLVRPGASVKISCKASGYSFTIYWMHWVQQRPGQGLEWIGMIDPSDSETRLNQKFKDKATLTVDKSSSTAYMQLSSPTSEDSAVYYCARRGDYNFDYWGQGTTLTVSS
# VL: DIVMTQAAPSVPATPGESVSISCRSSKSLLHSNGNTYLYWFLQRPGQSPQLLIFRMSNLASGVPDRFSGSGSGTAFTLRISRVEAEDVGVYYCMQHLEYPYTFGGGTKLEIK
# B7: 1035755 (antibody, V domains shown)
# VH: EVQLQQSGAELVRPGALVKLSCKASGFNIKDYYMHWVKQRPEQGLEWIGWIDPENGNSIYDPKFQGKASITADTSSNTAYLQLSSLTSEDTAVYYCATPSATSYFDYWGQGTTLTVSS
# VL: QIVLTQSPAIMSASPGEKVTISCSASSSVSYMYWYQQKPGSSPKPWIYRTSNLASGVPARFSGSGSGTSYSLTISSMEAEDAATYYCQQYHSYPYMYTFGGGTKLEIK
# Biological target: T1, recombinant SARS-CoV-2 spike S1 RBD (R319-F541), C-terminal 6-His (SARS-CoV-2, UniProt P0DTC2 319-541)
# Assay: flow cytometry, blocking of binding to hACE-2 cells
row,Binder,percent blocking [%]
1,B1,98.7
2,B2,94.1
3,B3,94.6
4,B4,94.5
5,B5,85.2
6,B6,93.7
7,B7,94.1

# Biological target: rSARS2-B.1.617.2 S aa16-1211 10+4x aa mut., C-His (SARS-CoV-2, UniProt P0DTC2 16-1211)
# Assay: as above
row,Binder,percent blocking [%]
1,B1,0
2,B2,89.5
3,B3,89.3
4,B4,0
5,B5,73.5
6,B6,93.8
7,B7,0

# Biological target: rSARS2-B.1.1.7 S aa16-1211 2x aa mut., C-His (SARS-CoV-2, UniProt P0DTC2 16-1211)
# Assay: as above
row,Binder,percent blocking [%]
1,B1,76.3
2,B2,71.1
3,B3,94.4
4,B4,81.4
5,B5,17.8
6,B6,82
7,B7,12

# Biological target: IN v2 variant RBD (R319-F541 with L452R, T478K) (SARS-CoV-2, UniProt P0DTC2 319-541)
# Assay: as above
row,Binder,percent blocking [%]
1,B1,1.7
2,B2,81.4
3,B3,96.5
4,B4,0.8
5,B5,37.4
6,B6,18.4
7,B7,0.9

# Biological target: BR P.1 variant RBD (R319-F541 with K417T, E484K, N501Y), C-terminal 6-His (SARS-CoV-2, UniProt P0DTC2 319-541)
# Assay: as above
row,Binder,percent blocking [%]
1,B1,0
2,B2,22
3,B3,95
4,B4,77.2
5,B5,0.4
6,B6,0
7,B7,14.9

# Biological target: rSARS2 RBD aa319-541, N439K, C-His (SARS-CoV-2, UniProt P0DTC2 319-541)
# Assay: as above
row,Binder,percent blocking [%]
1,B1,18.1
2,B2,34.6
3,B3,96.2
4,B4,53
5,B5,43
6,B6,0.9
7,B7,25.2

# Biological target: rSARS2-B.1.1.7 S aa16-1211 4x aa mut., C-His (SARS-CoV-2, UniProt P0DTC2 16-1211)
# Assay: as above
row,Binder,percent blocking [%]
1,B1,72.4
2,B2,75.9
3,B3,81.5
4,B4,74.4
5,B6,23.5
6,B7,35.8

# Biological target: T1, recombinant SARS-CoV-2 spike S1 RBD …
# Assay: as above
# Remark: another data set of the same source
row,Binder,percent blocking [%]
1,B1,98.7
2,B2,94.1
3,B3,94.6
4,B4,94.5
5,B5,85.2
6,B6,93.7
7,B7,94.1

# — patent US20230408517A1 (BIO TECHNE, published 2023)
